What was measured:
[1] = target: … (SEQ ID NO: 1) presented by HLA-A*0201 on peptide-pulsed cells (human); test: cell-based or functional assay
[2] = target: … (SEQ ID NO: 16) presented by HLA-A*0201 on peptide-pulsed cells (human); test: cell-based or functional assay
[3] = target: … (SEQ ID NO: 18) presented by HLA-A*0201 on peptide-pulsed cells (human); test: cell-based or functional assay
[4] = target: … (SEQ ID NO: 2) presented by HLA-A*0201 on cells (human); test: cell-based or functional assay
[5] = target: T1, LRPAP1 (signal peptide) peptide on HLA-A*02:01 (human); test: titration of short peptide on HLA-A*0201 positive T2 cells or EBV-JY cells; cytokine secretion by the LRPAP1-specific T cell clone (FIG. 1d, 1e); T cell clone or line
T1 peptide: FLGPWPAAS

[6] = target: T2, LRPAP1 (signal peptide), V-variant: C-terminal serine replaced by valine peptide on HLA-A*02:01 (human); test: as above
T2 peptide: FLGPWPAAV

[7] = target: T3, LRPAP1 (signal peptide), I-variant at position 9 peptide on HLA-A*02:01 (human); test: as above
T3 peptide: FLGPWPAAI

[8] = target: T4, LRPAP1 (signal peptide), L-variant at position 9 peptide on HLA-A*02:01 (human); test: as above
T4 peptide: FLGPWPAAL

B1: TCR of the LRPAP1-specific T cell clone 1A8 (TCR, V domains shown)
Valpha: RKEVEQDPGPFNVPEGATVAFNCTYSNSASQSFFWYRQDCRKEPKLLMSVYSSGNEDGRFTAQLNRASQYISLLIRDSKLSDSATYLCVVMGYGQNFVFGPGTRLSVLP
Vbeta: GAVVSQHPSWVICKSGTSVKIECRSLDFQATTMFWYRQFPKQSLMLMATSNEGSKATYEQGVEKDKFLINHASLTLSTLTVTSAHPEDSSFYICSAMGRQSTDTQYFGPGTRLTVL
[1]
  EC50 of the T cell response to peptide-pulsed HLA-A*0201 positive cells (functional T cell avidity): 0.1 µg/mL
  T cell activation, V-peptide against S-peptide: 19 fold
[2]
  EC50 of the T cell response to peptide-pulsed HLA-A*0201 positive cells (functional T cell avidity): 0.7 µg/mL
[3]
  EC50 of the T cell response to peptide-pulsed HLA-A*0201 positive cells (functional T cell avidity): 3.7 µg/mL
[4]
  EC50 of the T cell response to peptide-pulsed HLA-A*0201 positive cells (functional T cell avidity): 1.9 µg/mL
[5]
  EC50 of peptide: 1.9 µg/mL
[6]
  EC50 of peptide: 0.1 µg/mL
[7]
  EC50 of peptide: 0.7 µg/mL
[8]
  EC50 of peptide: 3.7 µg/mL
